Target: SARS-CoV-2 Spike glycoprotein (SARS-CoV-2) (UniProt P0DTC2)
Test: SPR

## DC-SIGN entire extracellular domain (ECD) (from UniProt Q9NNX6 59-404) (receptor)
  SPR response without ligand (the pair that is blocked): 2500 RU

## L-SIGN entire extracellular domain (ECD) (from UniProt Q9H2X3 71-399) (receptor)
  SPR response without ligand (the pair that is blocked): 2000 RU
